Key:
[1] = test system: HER2, HER3, EGFR and downstream effectors in HCC-95 cells; assay: Western blotting of protein phosphorylation; assay type: cell-based, human
Source text: These events likely culminate in inhibition of growth and impaired survival.

[2] = test system: NRG1-β1-stimulated MCF-7 cells; assay: NRG1-β1-stimulated growth of MCF-7 cells; assay type: cell-based, human
Description: MCF-7 cells were treated with the indicated concentrations of NRG1-b1 for 10 minutes, and then cell extracts were prepared and subjected to Western blotting for the indicated phosphorylated (p) or total (t) proteins (FIG. 2A). […] Data were analyzed by nonlinear regression using GraphPad Prism 8. There were four replicates of each condition and data represent the mean±SD. […] Cells were counted on the days indicated on the graph. Results represent the mean±SD of duplicates of each condition in one representative experiment. MDA-MB-175-VII (FIG. 2D) and LUAD-0061AS3 (FIG. 2E) cells were treated with the indicated concentrations of inhibitors for 48 hours, and then caspase 3/7 enzymatic activity was measured in cell homogenates. Carfilzomib (20S proteasome inhibitor) was used as a positive control for apoptosis. […]
For the time-course experiments, cells were plated at a density of 5,000 (HCC-95) or 10,000 (all others) cells per well in 12-well tissue culture plates, and then treated 24 hours later (time 0) with the respective agents. […] Cells were trypsinized and counted at the relevant time-point shown on the graphs. […] AlamarBlue is a cell permeable […] dye that is reduced when it enters the mitochondria and emits fluorescence at a different wavelength (Gloeckner H, J. Immunol. Methods 2001; 252:131-8). […]

CTG-0943 PDX tumors = assay: Pancreatic adenocarcinoma PDX model (APP-NRG1); assay type: in vivo, mice
Description: Mice bearing CTG-0943 PDX tumors (5-8 mice per group) were treated with indicated agents (FIG. 8A). Representative H&E-stained slides of a vehicle-treated tumor (FIG. 8B). Tumor volume, results represent the mean±SEM. […] Change in the volume of individual tumors (vehicle: day 20; treated groups: day 31) compared with day 0(%) (FIG. 8D). Western blot analysis of vehicle, and afatinib and seribantumab-treated tumors. Tumor residues extracted day 24 for vehicle-, day 31 for seribantumab-, and day 32 for afatinib-treated groups. Antibody reactivity with human (H) and/or mouse (M) proteins is indicated.
Models of isogenic pancreatic cancer cells with NRG1 fusions by lentiviral-mediated cDNA expression of ATP1B1-NRG1 and SLC3A2-NRG1 fusions in immortalized human pancreatic ductal cells (H6c7) were developed. […] Western blotting analysis was used to evaluate protein phosphorylation and expression. The presence of NRG1 fusions was confirmed by reverse transcription polymerase chain reaction (RT-PCR) and next-generation sequencing (NGS).
There was no regression of afatinib-treated pancreatic PDX tumors. […] This was confirmed using a human-specific GAPH antibody.

[3] = in vivo
Source text: Patients are monitored during weekly dosing for a period of 28 days (i.e., throughout C1W1, C1W2, C1W3, and C1W4) for the occurrence of DLTs. […] The grading of AEs is based on the “common terminology criteria for adverse events” (CTCAE) version 5.0. Hematologic toxicity includes febrile neutropenia, neutropenic infection, grade 4 neutropenia >7 days, grade ≥3 thrombocytopenia for >7 days, grade ≥3 thrombocytopenia with clinically significant bleeding, grade 4 thrombocytopenia, and grade ≥3 anemia >7 days.
In the current study, 6 patients were treated in a safety run-in phase with an induction regimen consisting of a 3,000 mg loading dose followed by 2,000 mg weekly for 3 weeks. […] Enrollment continued under Induction Regimen 2 consisting of 3,000 mg once weekly for 4 weeks. The next 6 patients enrolled were treated with Induction Regimen 2.
Upon review, the next 6 patients enrolled and initiated treatment with Induction Regimen 2.
Upon review, all subsequently enrolled patients treated under Protocol Version 2.0 initiated treatment with Induction Regimen 2.

HBECp53-CD74-NRG1 cells = assay: Time-course growth by cell counting; assay type: cell-based, human; details: highest concentration of seribantumab
Description: (§1) Expression of […] (FIG. 1A) or SLC3A2-NRG1 (FIG. 2B) fusions in MDA-MB-175-VII and LUAD-0061AS3 cells, respectively, was determined by RT-PCR. The HBECp53 (NRG1 fusion negative) and HBECp53-SLC3A2-NRG1 cells were used as negative and positive controls, respectively. […] Viability results represent the mean±SEM of 2-5 independent experiments in which each condition was assayed in triplicate determinations. Viability data were analyzed by nonlinear regression and the IC50 values for growth inhibition and the 95% confidence interval were determined with GraphPad Prism 8. […] Results represent the mean±SD for one experiment in which each condition was assayed in duplicate.
(§2) For the time-course experiments, cells were plated at a density of 5,000 (HCC-95) or 10,000 (all others) cells per well in 12-well tissue culture plates, and then treated 24 hours later (time 0) with the respective agents. […] Cells were trypsinized and counted at the relevant time-point shown on the graphs. For dose-response studies, cells were plated at a density of 7,500-10,000 cells in white clear-bottom 96-well plates in a volume of […] complete growth media and […] chemicals added at 10× concentration (to achieve 1× concentration) in a final volume of […]. After 96-hour incubation, […] AlamarBlue cell viability reagent was added to achieve a final concentration of 10%. AlamarBlue is a cell permeable […] dye that is reduced when it enters the mitochondria and emits fluorescence at a different wavelength (Gloeckner H, J. Immunol. Methods 2001; 252:131-8). Fluorescence was measured (excitation, 530 nm and emission, 585 nm) using a […] Spectramax M2 Fluorescence Plate Reader, as described previously (Somwar R, J. Biomol. Screen 2009; 14:1176-84). In each experiment, background fluorescence was determined in cells treated with […] of the 20S proteasome inhibitor, carfilzomib, which is toxic to most cells at high concentrations, and was subtracted from all values. There were 3-4 replicates of each condition. Relative IC50 values and 95% confidence interval values were determined by nonlinear regression analysis using GraphPad Prism 8 software using either a variable slope model or in cases where inhibition was only partial, a three-parameter fit was used. […] Each condition was assayed in triplicate in 2-5 independent experiments.
(§3) In these experiments, the MDA-MB-175 and LUAD-0061AS3 cell lines, isogenic HBECp53 cells ectopically expressing a CD74-NRG1 fusion, and the NRG1-amplified lung cancer cell line, HCC-95 (FIGS. 1E-H) were used. […] Afatinib sensitivity of HCC-95 cells was not examined in this study.

HCC-95 cells = assay: Time-course growth by cell counting; assay type: cell-based, human; details: lowest antibody concentration
Description: as §1, §2, §3

MDA-MB-175-VII cells = assay: Time-course growth by cell counting; assay type: cell-based, human
Description: as §1, §2, §3

[4] = 5 mg or 10 mg twice weekly seribantumab

B1: seribantumab: anti-ERBB3 (HER3) fully human monoclonal antibody; heavy and light chains SEQ ID NOs: 12 and 13 (antibody)
heavy: EVQLLESGGGLVQPGGSLRLSCAASGFTFSHYVMAWVRQAPGKGLEWVSSISSSGGWTLYADSVKGRFTISRDNSKNTLYLQMNSLRAEDTAVYYCTRGLKMATIFDYWGQGTLVTVSSASTKGPSVFPLAPCSRSTSESTAALGCLVKDYFPEPVTVSWNSGALTSGVHTFPAVLQSSGLYSLSSVVTVPSSNFGTQTYTCNVDHKPSNTKVDKTVERKCCVECPPCPAPPVAGPSVFLFPPKPKDTLMISRTPEVTCVVVDVSHEDPEVQFNWYVDGVEVHNAKTKPREEQFNSTFRVVSVLTVVHQDWLNGKEYKCKVSNKGLPAPIEKTISKTKGQPREPQVYTLPPSREEMTKNQVSLTCLVKGFYPSDIAVEWESNGQPENNYKTTPPMLDSDGSFFLYSKLTVDKSRWQQGNVFSCSVMHEALHNHYTQKSLSLSPGK
light: QSALTQPASVSGSPGQSITISCTGTSSDVGSYNVVSWYQQHPGKAPKLIIYEVSQRPSGVSNRFSGSKSGNTASLTISGLQTEDEADYYCCSYAGSSIFVIFGGGTKVTVLGQPKAAPSVTLFPPSSEELQANKATLVCLVSDFYPGAVTVAWKADGSPVKVGVETTKPSKQSNNKYAASSYLSLTPEQWKSHRSYSCRVTHEGSTVEKTVAPAECS
EGFR phosphorylation [1]: little effect | phosphorylation of HER2, HER3, and downstream effectors [1]: inhibited phosphorylation | NRG1-β1-stimulated growth, temporal study ([2]; pretreated 2 μmol/L seribantumab 1 hour, 10 ng/mL NRG1-β1, up to 10 days): prevented NRG1-β1-stimulated growth completely | growth (viability) of NRG1-β1-stimulated cells ([2]; seribantumab 0.125 μmol/L (lowest used), NRG1-β1 0-5 ng/mL, 96 hours): largely suppressed growth | tumor growth (CTG-0943 PDX tumors; [4]): Tumor growth inhibition was observed | tumor shrinkage (CTG-0943 PDX tumors; [4]): up to 55% | tumor shrinkage, range (CTG-0943 PDX tumors; [4]): 23-77% | proteins in residual tumors by Western blotting (CTG-0943 PDX tumors; seribantumab-treated tumors, end of study (day 31)): Loss of phosphorylated and total EGFR, HER2 and HER3, cyclin D1 | efficacy compared with afatinib (CTG-0943 PDX tumors; two doses of seribantumab vs afatinib 5 mg/kg QD): more effective than afatinib | TEAEs [3]: Grade 1 diarrhea, nausea, fatigue, rash and pruritis | cell growth over time (HBECp53-CD74-NRG1 cells): almost complete inhibition of growth | cell growth over time (HCC-95 cells): growth completely inhibited | time at which growth was slowed after start of treatment (MDA-MB-175-VII cells; seribantumab 0.1, 1, 10 μmol/L): 24 h | cell growth over time (MDA-MB-175-VII cells; seribantumab 1 and 10 μmol/L, 12 days): growth was blocked for the entire 12-day period
